Target: the molecule itself
Test: SDS-resistant dimer on SDS-PAGE with western blot

Protein | stoichiometry N | binding result
YqjD (wild type, full-length, N-terminal Xpress-His6-tag) (natural protein, E. coli, UniProt P64581 1-101, looked up) MSKEHTTEHLRAELKSLSDTLEEVLSSSGEKSKEELSKIRSKAEQALKQSRYRLGETGDAIAKQTRVAAARADEYVRENPWTGVGIGAAIGVVLGVLLSRR | 2 | 
IAKQTRVAAARADEYVRENPWTGVGIGAAIGVVLGVLLSRR (domain or fragment, E. coli, UniProt P64581 61-101, looked up) [ΔN(60)-YqjD] |  | binds
ΔN(45)-YqjD (domain or fragment, E. coli, UniProt P64581 46-101, looked up) ALKQSRYRLGETGDAIAKQTRVAAARADEYVRENPWTGVGIGAAIGVVLGVLLSRR |  | binds
ΔN(30)-YqjD (domain or fragment, E. coli, UniProt P64581 31-101, looked up) KSKEELSKIRSKAEQALKQSRYRLGETGDAIAKQTRVAAARADEYVRENPWTGVGIGAAIGVVLGVLLSRR |  | binds
ΔN(12)-YqjD (domain or fragment, E. coli, UniProt P64581 13-101, looked up) ELKSLSDTLEEVLSSSGEKSKEELSKIRSKAEQALKQSRYRLGETGDAIAKQTRVAAARADEYVRENPWTGVGIGAAIGVVLGVLLSRR |  | binds
